Positions of bridges follow the written chain, without caps; N, C: chain ends. Non-standard residues stand in square brackets, D forms with d. No end group written: not given here. Pen = CC(C)(S)[C@H](N)C(=O)O; NMeA = CN[C@@H](C)C(=O)O
B1: Peptide No. 155 (peptide)
peptide: QRF[Pen]TGHF[dF]GPYPCNGP-NH2
modifications: disulfide 4-14; N-terminus assumed
SMILES: C[C@@H](O)[C@@H]1NC(=O)[C@@H](NC(=O)[C@H](Cc2ccccc2)NC(=O)[C@H](CCCNC(=N)N)NC(=O)[C@@H](N)CCC(N)=O)C(C)(C)SSC[C@@H](C(=O)N[C@@H](CC(N)=O)C(=O)NCC(=O)N2CCC[C@H]2C(N)=O)NC(=O)[C@@H]2CCCN2C(=O)[C@H](Cc2ccc(O)cc2)NC(=O)[C@@H]2CCCN2C(=O)CNC(=O)[C@@H](Cc2ccccc2)NC(=O)[C@H](Cc2ccccc2)NC(=O)[C@H](Cc2c[nH]cn2)NC(=O)CNC1=O
B2: Peptide No. 211 (peptide)
peptide: FVTGHFG[dP]WYPA-NH2
modifications: N-terminus assumed
SMILES: CC(C)[C@H](NC(=O)[C@@H](N)Cc1ccccc1)C(=O)N[C@H](C(=O)NCC(=O)N[C@@H](Cc1c[nH]cn1)C(=O)N[C@@H](Cc1ccccc1)C(=O)NCC(=O)N1CCC[C@@H]1C(=O)N[C@@H](Cc1c[nH]c2ccccc12)C(=O)N[C@@H](Cc1ccc(O)cc1)C(=O)N1CCC[C@H]1C(=O)N[C@@H](C)C(N)=O)[C@@H](C)O
B3: Peptide No. 196 (peptide)
peptide: QRFC[NMeA]GHFGGLYPCNGP-NH2
modifications: disulfide 4-14; N-terminus assumed
SMILES: CC(C)C[C@@H]1NC(=O)CNC(=O)CNC(=O)[C@H](Cc2ccccc2)NC(=O)[C@H](Cc2c[nH]cn2)NC(=O)CNC(=O)[C@H](C)N(C)C(=O)[C@@H](NC(=O)[C@H](Cc2ccccc2)NC(=O)[C@H](CCCNC(=N)N)NC(=O)[C@@H](N)CCC(N)=O)CSSC[C@@H](C(=O)N[C@@H](CC(N)=O)C(=O)NCC(=O)N2CCC[C@H]2C(N)=O)NC(=O)[C@@H]2CCCN2C(=O)[C@H](Cc2ccc(O)cc2)NC1=O
B4: Peptide No. 174 (peptide)
peptide: QRFVTGHFG[dP]IYPANGP-NH2
modifications: N-terminus assumed
SMILES: CC[C@H](C)[C@H](NC(=O)[C@H]1CCCN1C(=O)CNC(=O)[C@H](Cc1ccccc1)NC(=O)[C@H](Cc1c[nH]cn1)NC(=O)CNC(=O)[C@@H](NC(=O)[C@@H](NC(=O)[C@H](Cc1ccccc1)NC(=O)[C@H](CCCNC(=N)N)NC(=O)[C@@H](N)CCC(N)=O)C(C)C)[C@@H](C)O)C(=O)N[C@@H](Cc1ccc(O)cc1)C(=O)N1CCC[C@H]1C(=O)N[C@@H](C)C(=O)N[C@@H](CC(N)=O)C(=O)NCC(=O)N1CCC[C@H]1C(N)=O
B5: Peptide No. 175 (peptide)
peptide: QRFVTGHFG[dP]FYPANGP-NH2
modifications: N-terminus assumed
SMILES: CC(C)[C@H](NC(=O)[C@H](Cc1ccccc1)NC(=O)[C@H](CCCNC(=N)N)NC(=O)[C@@H](N)CCC(N)=O)C(=O)N[C@H](C(=O)NCC(=O)N[C@@H](Cc1c[nH]cn1)C(=O)N[C@@H](Cc1ccccc1)C(=O)NCC(=O)N1CCC[C@@H]1C(=O)N[C@@H](Cc1ccccc1)C(=O)N[C@@H](Cc1ccc(O)cc1)C(=O)N1CCC[C@H]1C(=O)N[C@@H](C)C(=O)N[C@@H](CC(N)=O)C(=O)NCC(=O)N1CCC[C@H]1C(N)=O)[C@@H](C)O
B6: Peptide No. 176 (peptide)
peptide: QRFVTGHFG[dP]YYPANGP-NH2
modifications: N-terminus assumed
SMILES: CC(C)[C@H](NC(=O)[C@H](Cc1ccccc1)NC(=O)[C@H](CCCNC(=N)N)NC(=O)[C@@H](N)CCC(N)=O)C(=O)N[C@H](C(=O)NCC(=O)N[C@@H](Cc1c[nH]cn1)C(=O)N[C@@H](Cc1ccccc1)C(=O)NCC(=O)N1CCC[C@@H]1C(=O)N[C@@H](Cc1ccc(O)cc1)C(=O)N[C@@H](Cc1ccc(O)cc1)C(=O)N1CCC[C@H]1C(=O)N[C@@H](C)C(=O)N[C@@H](CC(N)=O)C(=O)NCC(=O)N1CCC[C@H]1C(N)=O)[C@@H](C)O
B7: Peptide No. 279 (peptide)
peptide: RFXTGHFGXXYPC
modifications: Pen3; Sar9; NMeLeu10; intrachain disulfide; N-termini joined by Bis-dPEG6 diacid linker; C-terminal amide
B8: Peptide No. 287 (peptide)
peptide: RFXTGHFGXXYPCG
modifications: Pen3; Sar9; NMeLeu10; intrachain disulfide; C-termini joined through a branching Lys
notes: dimer made as Peptide No. 280
B9: Peptide No. 289 (peptide)
peptide: RFXTGHFGXXYPC
modifications: Pen3; Sar9; NMeLeu10; intrachain disulfide; N-termini joined by Asp; linker amine acylated with PEG 30 kDa succinimidyl ester; C-terminal amide
notes: also called pegylated analog of Peptide No. 285
B10: Peptide No. 280 (peptide)
peptide: RFXTGHFGXXYPC
modifications: sequence analogous to Peptide No. 235; C-termini joined through a branching Lys (Fmoc-Lys(Fmoc)-OH); intrachain disulfide
notes: dimer
B11: Peptide No. 286 (peptide)
peptide: RFXTGHFGXXYPC
modifications: Pen3; Sar9; NMeLeu10; intrachain disulfide; N-termini joined by Glu (from Boc-Glu(OH)-OH) with a free amine; C-terminal amide
B12: Peptide No. 288 (peptide)
peptide: RFXTGHFGXXYPCGG
modifications: Pen3; Sar9; NMeLeu10; intrachain disulfide; C-termini joined through a branching Lys
notes: dimer made as Peptide No. 280

Target: T1, soluble human FcRn (shFcRn) (human, UniProt P55899 24-297; P61769 21-119, biotinylated with Sulfo-NHS-LC-Biotin in the ELISA; amine-coupled to a CM5 chip in SPR)
T1 construct: also called biotinylated shFcRn
T1 sequence (P55899 24-297 limits assumed, chain 1 of 2): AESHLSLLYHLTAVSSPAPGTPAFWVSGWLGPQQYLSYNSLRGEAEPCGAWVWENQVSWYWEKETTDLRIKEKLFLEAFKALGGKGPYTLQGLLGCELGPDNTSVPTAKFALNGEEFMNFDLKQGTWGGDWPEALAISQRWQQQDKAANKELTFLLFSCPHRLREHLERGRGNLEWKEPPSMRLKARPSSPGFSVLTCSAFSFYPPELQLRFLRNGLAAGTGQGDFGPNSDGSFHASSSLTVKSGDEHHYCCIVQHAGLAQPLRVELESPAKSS
T1 sequence (P61769 21-119 limits assumed, chain 2 of 2): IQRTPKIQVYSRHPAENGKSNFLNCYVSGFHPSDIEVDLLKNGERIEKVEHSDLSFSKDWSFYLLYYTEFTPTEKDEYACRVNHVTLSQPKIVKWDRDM
Test: SPR, pH 6
Procedure: The following steps were performed to cross-link soluble human or cynomolgus FcRn to the dextran surface of a CM5 sensor chip (Biacore AB, Uppsala, Sweden) by an amine coupling reaction involving 1-ethyl-(3-dimethylaminopropyl)-carbodiimide hydrochloride (EDC) (Biacore AB, Uppsala, Sweden) and N-hydroxysuccinimide (NHS) (Biacore AB, Uppsala, Sweden) as recommended by Biacore (BIAapplications Handbook, version AB, section 4.2, Biacore AB, Uppsala, Sweden). The FcRn protein was diluted in 50 mM sodium acetate, pH 4.5 (Biacore AB, Uppsala, Sweden) to a concentration of 10 to 30 µg/ml and used to coat one flow cell on the sensor chip. Residual sites on the FcRn flow cell were blocked with 1 M ethanolamine hydrochloride pH 8.5 (Biacore AB, Uppsala, Sweden). A control flow cell was blocked with ethanolamine for reference subtraction. For analysis of the monomeric peptides, FcRn was coated to a final density of 4000-5000 response units (RU). For analysis of the peptide dimers, FcRn was coated to a density of 2000-2500 RU. All SPR measurements were performed using a BIACORE 3000 Instrument (Biacore AB Uppsala, Sweden). For measurements done at either pH 6 or pH 7.4, experiments were performed in 50 mM phosphate, 100 mM sodium chloride, 0.01% surfactant P20 (Biacore AB, Uppsala, Sweden).
A. Representative Procedure for the Determination of Binding Constant of Monomeric Peptides Ten 2-fold dilutions of the peptide were injected over the FcRn-CM5 chip at a rate of 20 µl/min for 2 min. The peptide was dissociated from the chip for 2.5 minutes with buffer. Any remaining peptide was removed from the chip with a 30 second injection of HBS-P buffer (Biacore AB, Uppsala, Sweden) at a rate of 30 µl/min. Sensorgrams were generated and analyzed using BiaEval software version 3.1 (Biacore AB, Uppsala, Sweden). The equilibrium RU observed for each injection was plotted against concentration. The equilibrium K_D values were derived by analysis of the plots using the steady state affinity model included in the BiaEval software.

| Binder | Kd [nM] |
| --- | --- |
| QRFDTGHFGXLYPKNGP (D-Ala10; lactam bridge Asp4-Lys14 side chains; C-terminal amide) [Peptide No. 105] | 2100 |
| QRFXTGHFXGLYPCNGP (Pen4; D-Phe9; disulfide; C-terminal amide) [Peptide No. 52] | 510 |
| RFXTGAFGXXYPC (Pen3; Sar9; NMeLeu10; disulfide; C-terminal amide) [Peptide No. 266] | 9900 |
| QRFXTGHFXGLYPCNGP (Pen4; D-His9; disulfide; C-terminal amide) [Peptide No. 50] | 410 |
| QRFXTGHFXGXYPCNGP (Pen4; D-Phe9; NMeLeu11; disulfide; C-terminal amide) [Peptide No. 153] | 240 |
| QRFXTGHFGXLYPCNGP (Pen4; D-Pro10; disulfide; C-terminal amide) [Peptide No. 40] | 230 |
| QRFXTGHFXGLYPCNGP (Pen4; Sar9; disulfide; C-terminal amide) [Peptide No. 111] | 2000 |
| QRFXTGHFXPLYPCNGP (Pen4; D-Phe9; disulfide; C-terminal amide) [Peptide No. 203] | 3800 |
| B1 | 18300 |
| QRFXTGHFXGXYPCNGP (Pen4; D-Ala9; NMeLeu11; disulfide; C-terminal amide) [Peptide No. 154] | 230 |
| QRFXTGHFXGLYPCNGP (Pen4; D-Ile9; disulfide; C-terminal amide) [Peptide No. 51] | 2600 |
| B2 | 8000 |
| RFXTGHFGXLYPC (Pen3; D-Pro9; disulfide; C-terminal amide) [Peptide No. 142] | 140 |
| QRFXTGHFXXLYPCNGP (Pen4; D-Phe9; D-Pro10; disulfide; C-terminal amide) [Peptide No. 150] | 720 |
| QRFXTGHFGXLYPXNGP (Pen4; D-Pro10; Pen14; disulfide; C-terminal amide) [Peptide No. 295] | 280 |
| B3 | 18000 |
| QRFXTXHFGGLYPCNGP (Pen4; Sar6; disulfide; C-terminal amide) [Peptide No. 108] | 88000 |
| QRFXTGHFGGXYPCNGP (Pen4; NMeLeu11; disulfide; C-terminal amide) [Peptide No. 113] | 86 |
| QRFXTGHFXXLYPCNGP (Pen4; D-Pro9; D-Pro10; disulfide; C-terminal amide) [Peptide No. 152] | 3300 |

Target: T1, soluble human FcRn (shFcRn)
Test: competition ELISA vs human IgG
Procedure: The wells were coated with 100 μl/well of 1 μg/ml biotinylated-shFcRn in Buffer A. The plate was sealed and incubated at 37° C. for 2 hours. Afterwards, the plate was washed with 200 μl/well of Buffer B (Buffer B: 100 mM MES pH 6, 150 mM NaCl, 0.5% BSA IgG-free (Jackson ImmunoResearch, West Grove, Pa.), 0.05% Tween-20). […] To allow for mixing, the plate was rocked for 2 minutes, sealed and incubated at 37° C. for 2 hours. […] The plate was covered, incubated for 30 minutes at room temperature and washed 4 times with 200 μl/well of ice-cold buffer B. SureBlue TMB substrate solution (100 μl/well, KPL, Gaithersburg, Md.) was added and the plate was allowed to incubate at room temperature until color developed, which took 5 to 10 minutes. Once color developed, 100 μl/well of TMB stop solution (KPL, Gaithersburg, Md.) was added and the absorbance was measured at 450 nm.

| Binder | IC50 [nM] |
| --- | --- |
| QRFCTGHFGGLYPXNGP (D-Cys14; disulfide; C-terminal amide) [Peptide No. 30] | 125000 |
| QRFXTGHFXGLYPCNGP (Pen4; D-Phe9; disulfide; C-terminal amide) [Peptide No. 52] | 2800 |
| QRFXTGHFXGLYPCNGP (Pen4; D-His9; disulfide; C-terminal amide) [Peptide No. 50] | 3600 |
| B4 | 94000 |
| B5 | 200000 |
| B6 | 230000 |
| B7 | 7 |
| QRFXTGHFXGXYPCNGP (Pen4; D-Phe9; NMeLeu11; disulfide; C-terminal amide) [Peptide No. 153] | 1300 |
| QRFXTGHFGXLYPCNGP (Pen4; D-Pro10; disulfide; C-terminal amide) [Peptide No. 40] | 1400 |
| B1 | 39000 |
| B8 | 20 |
| QRFXTGHFXGXYPCNGP (Pen4; D-Ala9; NMeLeu11; disulfide; C-terminal amide) [Peptide No. 154] | 3200 |
| QRFXTGHFXGLYPCNGP (Pen4; D-Ile9; disulfide; C-terminal amide) [Peptide No. 51] | 9400 |
| B9 | 18 |
| QRFXTGHFXXLYPCNGP (Pen4; D-Phe9; D-Pro10; disulfide; C-terminal amide) [Peptide No. 150] | 5900 |
| QRFXTGHFGXLYPXNGP (Pen4; D-Pro10; Pen14; disulfide; C-terminal amide) [Peptide No. 295] | 1600 |
| B3 | 169000 |
| B10 | 25 |
| B11 | 5.6 |
| B12 | 16 |
| QRFXTXHFGGLYPCNGP (Pen4; Sar6; disulfide; C-terminal amide) [Peptide No. 108] | > 125000 |
| QRFXTGHFGGXYPCNGP (Pen4; NMeLeu11; disulfide; C-terminal amide) [Peptide No. 113] | 1600 |
| QRFXTGHFXXLYPCNGP (Pen4; D-Pro9; D-Pro10; disulfide; C-terminal amide) [Peptide No. 152] | 21000 |

— US8906844B2 (SYNTONIX PHARMACEUTICALS, dated 2014)
